According to publication doi:10.1101/2023.10.09.561484:

What was measured:
[1] = biological target: EGFP-Pro(K10R) (Streptomyces mobaraensis); assay: BLI
[2] = biological target: EGFP-Pro(K10R/Y12A) (Streptomyces mobaraensis); assay: BLI

B1: ΔproMTG lacking the C-terminal His-tag (recombinant mature microbial transglutaminase) (enzyme)
chain: DSDDRVTPPAEPLDRMPDPYRPSYGRAETVVNNYIRKWQQVYSHRDGRKQQMTEEQREWLSYGCVGVTWVNSGQYPTNRLAFASFDEDRFKNELKNGRPRSGETRAEFEGRVAKESFDEEKGFQRAREVASVMNRALENAHDESAYLDNLKKELANGNDALRNEDARSPFYSALRNTPSFKERNGGNHDPSRMKAVIYSKHFWSGQDRSSSADKRKYGDPDAFRPAPGTGLVDMSRDRNIPRSPTSPGEGFVNFDYGWFGAQTEADADKTVWTHGNHYHAPNGSLGAMHVYESKFRNWSEGYSDFDRGAYVITFIPKSWNTAPDKVKQGWP
Q: Which results are given for B1?
A: Kd [1]: 0.019 µM; Kd [2]: 7.85 µM
